Consider 1 molecule from patent publication US20140341971A1 (LIPOTEK, published 2014).

This assay deals with T1, human DC-SIGN (DC-specific intercellular adhesion molecule 3-grabbing nonintegrin) (human, UniProt Q9NNX6 1-404).
T1 construct: whole, on cells; Target on THP-1 cells transfected with human DC-SIGN and on human moDCs; also called CD209; human DC marker DC-SIGN
T1 sequence (looked up): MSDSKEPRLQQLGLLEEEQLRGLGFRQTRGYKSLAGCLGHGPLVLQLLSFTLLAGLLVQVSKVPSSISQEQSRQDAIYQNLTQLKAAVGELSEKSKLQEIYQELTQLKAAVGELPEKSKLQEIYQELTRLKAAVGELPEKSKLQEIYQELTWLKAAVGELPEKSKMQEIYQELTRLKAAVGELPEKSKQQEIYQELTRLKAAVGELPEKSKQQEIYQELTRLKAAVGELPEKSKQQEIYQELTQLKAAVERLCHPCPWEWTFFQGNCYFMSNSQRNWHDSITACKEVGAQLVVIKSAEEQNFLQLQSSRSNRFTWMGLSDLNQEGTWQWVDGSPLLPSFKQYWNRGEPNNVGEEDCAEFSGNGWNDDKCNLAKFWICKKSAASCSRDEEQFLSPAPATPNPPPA
Kind of assay: confocal microscopy, fluorescent vaccine on human monocyte-derived DCs. On the procedure: FIG. 3: Z-sections through a human monocyte-derived dendritic cell (moDC) incubated with Lipovaxin-MM. […] Cells were placed on coverslips immediately prior to observation under the confocal microscope.

B1: DMS5000 (other)
VH: STEVQLLESGGGLVQPGGSLRLSCAASGFTFDRRAMGWVRQAPGKGLEWVSSIESDGTRTYYADSVKGRFTISRDNSKNTLYLQMNSLRAEDTAVYYCAKHPGSSYVFDYWGQGTLVTVSS
notes: Human VH domain antibody (dAb), made as a secreted protein in E. coli; also called DC-SIGN specific domain antibody (dAb); dAb
In the case of B1, the binding result is reported as “binds”.
